In publication PMC6098130 one finds median diffusion coefficient of IgM in galectin-9-high regions (against 0.028 μm^2/s in galectin-9-low regions), single-particle tracking on Gal9-KO B cells treated with fluorescently labeled rGal9 data, which are given here for one substance.

The assay has as its target IgM-BCR (Ighm) (mouse (endogenous in primary B cells)).

As for “recombinant mouse galectin-9 (rGal9, E. coli-derived, R&D Systems) (from UniProt O08573 1-353) (natural protein)”, the median diffusion coefficient of IgM in galectin-9-high regions (against 0.028 μm^2/s in galectin-9-low regions), single-particle tracking on Gal9-KO B cells treated with fluorescently labeled rGal9 was found to be 0.012 μm^2/s.
